Data from US20170342155A1 (Amgen, published 2017).

Biological target: T1, wild-type human CCR7 (pcDNA3.1 Neo-hCCR7, 20100121357) (human, UniProt P32248 25-378)
T1 construct: Expressed on transfected 293T, CHO AM1/D or HEK293T cells; also called huCCR7; CCR7 receptor
T1 sequence: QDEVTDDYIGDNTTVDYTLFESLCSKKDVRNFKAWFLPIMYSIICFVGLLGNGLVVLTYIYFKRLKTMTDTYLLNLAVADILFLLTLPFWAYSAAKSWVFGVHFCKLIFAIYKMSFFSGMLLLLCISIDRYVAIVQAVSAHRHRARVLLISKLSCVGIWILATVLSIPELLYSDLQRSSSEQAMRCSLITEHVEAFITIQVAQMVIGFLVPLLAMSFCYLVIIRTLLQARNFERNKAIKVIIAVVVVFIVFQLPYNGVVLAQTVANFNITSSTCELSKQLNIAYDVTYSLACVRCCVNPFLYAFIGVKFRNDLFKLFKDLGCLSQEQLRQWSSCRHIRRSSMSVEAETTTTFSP
Test: hybridoma screening on cells expressing human CCR7

- binding result: binds
B1: antibody 6E1.2 (antibody, human IgG2, lambda, V domains shown)
VH: QGQLVESGGGVVQPGRSLRLSCAASGFTFRSYGMHWVRQAPGKGLEWVAVIWYDGSKKYYADSVKGRFTISRDNSKNTLFLQMNSLRAEDTAVYYCARDGGIAAFLQDNWFDPWGQGTLVTVSS
VL: SYELTQPPSVSVSPGQTASITCSGNKLGDKYASWYHQKPGQSPVLVIYQDNKRPSGIPERFSGSNSGNTATLTISGTQTMDEADYFCQAWDRTVVFGGGTKLTVLG
notes: Human antibody from XenoMouse hybridoma; Light = 26 and heavy = 58 is inferred from the order of the listing
